To fix the notation:
B1: AGE-2 aptamer 15 (ssDNA)
DNA: TACAGCCCCCCAACCCACCACCGCCGTAGATAACCACCCACCAACGATATCCCACT
B2: AGE-2 aptamer 14 (ssDNA)
DNA: CTGAATACCAACGTACCCCCTCCCAAGTCCCCCTACCCACGCTAAACTCAACCTCA
B3: AGE-2 aptamer 3 (ssDNA)
DNA: CGCCCCCACACCACCGCCACGACCCCACAATCCCCCGAGGTCCCCCGCGTCCACAC
B4: AGE-2 aptamer 9 (ssDNA)
DNA: TAACTCACTCCATACTCACTTGCTGATTCGCCAACAACACACCCTTAAACAGTCCC
B5: AGE-2 aptamer 8 (ssDNA)
DNA: AACTAGCCCGAGCCACAATCCCATAACAAGCGTGACCACACTATCCTGTCTTCCC
B6: AGE-2 aptamer 2 (ssDNA)
DNA: ACCACTGCACGACCCCCACCAGTCCCACTCGCAGCGTCCATGGCCCCCACGCCCCA
B7: AGE-2 aptamer 10 (ssDNA)
DNA: ATAACCCCGACGTACACGCCAACTATGCCCACAACCCGCCATAACCCACCACCTTC
B8: AGE-2 aptamer 4 (ssDNA)
DNA: CCAGCCTCGATACCATACCCACCAACCCAACCAGACTCCACACACCCACGCGTCTC
B9: AGE-2 aptamer 7 (ssDNA)
DNA: CCACACTGCACTAAACCAGCGTCCCGGACCATCACAACCTCTGCCCACTAGCCCCT
B10: AGE-2 aptamer 5 (ssDNA)
DNA: CAAGCGCTCCATCCACCGACATACCTACCAAACACTCTCCTTGCCCATAAAACCAC
B11: AGE-2 aptamer 13 (ssDNA)
DNA: CCTCAACACACCTCTAACCAACCCTCAGCCCAGCACAACACCCCCCAAACCGACAC
B12: AGE-2 aptamer 6 (ssDNA)
DNA: CCCGCCATTCCCCTACATAACACCTACCCATCTCCCTTCCCAGTTAATCACCGC
B13: AGE-2 aptamer 11 (ssDNA)
DNA: CCCAAGCACAATAGCCACACCCACGACCCACCCTCATATTCCGACCACGCTCCC

Chain of AGE-2 (glyceraldehyde-derived advanced glycation end product of human serum albumin) (P02768 25-609, stated change not applied, one chain of several): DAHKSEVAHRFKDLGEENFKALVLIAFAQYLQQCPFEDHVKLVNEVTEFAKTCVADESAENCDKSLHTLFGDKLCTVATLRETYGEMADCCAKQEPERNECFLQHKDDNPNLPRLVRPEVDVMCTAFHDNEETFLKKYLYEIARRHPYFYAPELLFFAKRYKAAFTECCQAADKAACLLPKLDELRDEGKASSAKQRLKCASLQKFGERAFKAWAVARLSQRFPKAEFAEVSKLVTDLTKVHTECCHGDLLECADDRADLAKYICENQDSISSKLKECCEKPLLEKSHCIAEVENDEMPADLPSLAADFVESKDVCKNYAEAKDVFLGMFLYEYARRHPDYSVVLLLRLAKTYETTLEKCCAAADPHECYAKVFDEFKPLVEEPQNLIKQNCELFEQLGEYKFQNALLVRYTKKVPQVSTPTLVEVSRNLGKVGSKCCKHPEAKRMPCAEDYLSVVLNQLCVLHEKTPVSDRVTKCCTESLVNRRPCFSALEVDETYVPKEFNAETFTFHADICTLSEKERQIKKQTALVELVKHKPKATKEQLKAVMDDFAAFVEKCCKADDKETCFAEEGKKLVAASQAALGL

The data set concerns the target AGE-2 (glyceraldehyde-derived advanced glycation end product of human serum albumin) (Homo sapiens, UniProt P02768 P02768:25-609, HSA glycated with D-glyceraldehyde at 37 C for 7 days, dialysed against PBS). As to the kind of experiment: AGE-2 fluorescence attenuation, 100 ug/mL AGE-2, 25 nM aptamer. The conditions noted are these: tags: HSA from Sigma; immobilised on SulfoLink beads for SELEX. The procedure:
First, for measuring fluorescence properties of AGE-2, wavelengths of AGE-2 were determined for excitation and […] using a spectrofluorometer (FP-777: JASCO Corporation). […] Subsequently, the fluorescence intensity was measured with 25 to 100 μg/mL of AGE-2 at the excitation wavelength of 380 nm, and a calibration curve was prepared (FIG. 3A).
Then, to each aptamer (SEQ ID NOs: 1 to 15), 100 μg/mL of the AGE-2 was added at a final concentration of 25 to 100 nM, and the fluorescence intensity was measured (see FIGS. 3B and C). Based on attenuation in the fluorescence intensity of AGE-2 when the aptamer was added at 25 nM, the weight (ng) of the bound AGE-2 was calculated per mole (nmol) of the aptamer.
Turning to B1, the binding signal was 271 ng AGE-2 bound per nmol aptamer. Regarding B2, the binding signal is 158 ng AGE-2 bound per nmol aptamer. For the molecule B3, the binding signal was 260 ng AGE-2 bound per nmol aptamer. B4: the binding signal is 117 ng AGE-2 bound per nmol aptamer. Regarding B5, the binding signal was 175 ng AGE-2 bound per nmol aptamer. In the case of B6, the binding signal is 175 ng AGE-2 bound per nmol aptamer. Turning to B7, the binding signal is 134 ng AGE-2 bound per nmol aptamer.

Turning to B8, the binding signal is 210 ng AGE-2 bound per nmol aptamer. Turning to B9, the binding signal was 146 ng AGE-2 bound per nmol aptamer. For the molecule B10, the binding signal is 143 ng AGE-2 bound per nmol aptamer.

In the case of B11, the binding signal is 175 ng AGE-2 bound per nmol aptamer. The same measure for B12: 202 ng AGE-2 bound per nmol aptamer; for B13: 137 ng AGE-2 bound per nmol aptamer.

The values above are taken from patent US20090023672, “AGE-2 APTAMER” (KURUME UNIVERSITY, published 2009).
